Measurements taken from PMC6738421.

Columns and labels:
[1] = target: Arginyl-tRNA-protein transferase Ate1, isoform Ate1-1 (mouse) (UniProt Q9Z2A5)
[2] = target: Arginyl-tRNA-protein transferase Ate1, isoform Ate1-3 (mouse) (UniProt Q9Z2A5)
Sequence of Arginyl-tRNA-protein transferase Ate1, isoform Ate1-3 (mouse) (Q9Z2A5 other isoform, or with tags, fused parts or gaps): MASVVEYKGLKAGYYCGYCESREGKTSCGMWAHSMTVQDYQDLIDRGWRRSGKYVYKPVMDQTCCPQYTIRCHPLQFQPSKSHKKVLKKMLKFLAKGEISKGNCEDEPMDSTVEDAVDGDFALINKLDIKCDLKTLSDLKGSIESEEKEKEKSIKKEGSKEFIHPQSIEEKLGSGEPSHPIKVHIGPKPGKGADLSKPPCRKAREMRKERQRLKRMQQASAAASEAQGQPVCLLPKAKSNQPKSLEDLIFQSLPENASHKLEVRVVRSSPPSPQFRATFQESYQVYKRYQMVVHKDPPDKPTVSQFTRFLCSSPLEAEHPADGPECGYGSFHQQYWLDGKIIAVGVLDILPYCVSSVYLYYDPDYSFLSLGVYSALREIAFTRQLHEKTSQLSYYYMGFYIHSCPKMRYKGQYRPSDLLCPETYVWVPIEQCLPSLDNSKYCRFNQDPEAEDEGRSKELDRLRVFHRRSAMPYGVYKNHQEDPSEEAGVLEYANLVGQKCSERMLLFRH

Sequence of BSA (P02769 25-607): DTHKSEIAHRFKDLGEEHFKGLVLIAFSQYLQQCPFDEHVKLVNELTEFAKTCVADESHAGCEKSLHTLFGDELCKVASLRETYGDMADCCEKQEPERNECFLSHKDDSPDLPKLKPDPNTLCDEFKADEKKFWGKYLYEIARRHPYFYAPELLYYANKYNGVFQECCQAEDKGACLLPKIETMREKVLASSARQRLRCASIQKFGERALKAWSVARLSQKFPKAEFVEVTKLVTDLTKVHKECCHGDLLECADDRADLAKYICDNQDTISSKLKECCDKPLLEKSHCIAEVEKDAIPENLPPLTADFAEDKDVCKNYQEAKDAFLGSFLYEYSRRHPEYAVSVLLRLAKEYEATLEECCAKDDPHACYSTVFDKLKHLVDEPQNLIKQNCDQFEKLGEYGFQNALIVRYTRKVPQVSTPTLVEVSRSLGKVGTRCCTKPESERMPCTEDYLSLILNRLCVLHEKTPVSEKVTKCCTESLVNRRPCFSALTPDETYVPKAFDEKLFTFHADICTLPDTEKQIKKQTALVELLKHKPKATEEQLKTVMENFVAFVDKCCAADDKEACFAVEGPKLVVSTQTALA
Sequence of Arginyl-tRNA-protein transferase Ate1, isoform Ate1-1 (mouse) (Q9Z2A5 whole entry, canonical isoform): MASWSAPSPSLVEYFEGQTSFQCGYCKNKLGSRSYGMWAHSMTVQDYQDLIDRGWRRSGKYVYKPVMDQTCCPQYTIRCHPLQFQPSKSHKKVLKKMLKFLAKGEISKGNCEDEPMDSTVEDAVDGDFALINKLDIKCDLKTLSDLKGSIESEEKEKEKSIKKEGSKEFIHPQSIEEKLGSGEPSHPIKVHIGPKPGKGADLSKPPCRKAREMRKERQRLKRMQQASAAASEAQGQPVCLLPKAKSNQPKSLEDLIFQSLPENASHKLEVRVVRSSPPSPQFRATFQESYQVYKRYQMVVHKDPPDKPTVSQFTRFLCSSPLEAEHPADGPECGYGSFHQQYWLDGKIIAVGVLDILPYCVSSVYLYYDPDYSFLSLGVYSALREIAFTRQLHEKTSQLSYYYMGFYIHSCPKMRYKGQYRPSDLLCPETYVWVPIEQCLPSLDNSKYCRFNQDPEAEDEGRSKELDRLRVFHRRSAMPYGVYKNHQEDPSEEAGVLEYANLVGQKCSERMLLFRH

Km of arginylation of the substrate by Ate1-1 (enzyme kinetics by ITC) [1]: 33.2 µM
Km of arginylation of the substrate by Ate1-3 (enzyme kinetics by ITC) [2]: 52.5 µM
Substance: BSA (from UniProt P02769 25-607) (natural protein)
